167 variants from the RNAGym collection of RNA variant scans (doi:10.7554/elife.90254) can be followed below.

First the molecules themselves.
B1: OR4K15 (parent)
chain: GUUAACGGUCAUAGGCCAUGGAAACUAGGAGCACCAUUUCGCUGCCAGUGAAGAAAUGAACAAAGAAAAUCUGGGCCAGGCAGGCAUCAAAAGAAAUAGUCUUGCGCUCAACCAGAAAGUCUGUAAUCAUUUUAAGGGUA

Variants of B1 are the subject of the series. Put plainly: self-cleavage, relative activity (ratio to wild type); higher = more cleavage; in vitro, sequencing; the parent is a self-cleaving ribozyme.
Turning to A24C A51G, the self-cleavage amounted to 1.23.
As to A23G U70C, the self-cleavage was determined as 0.64.
Under A23G U70A stands 0.97; under A22G C46G, 1.35; under A22G G137A, 1.63.
For the variant A22U U70C, the self-cleavage stood at 0.9.
Next, A23U U37C: 1.41; A23G U43A: 0.88.
Next, A24G A68C: 1.49.
For the variant A24G A68G, the self-cleavage is 1.01.
Under A22U A134G stands 1.35.
Next, A24G G80C: 0.1; A23G A118C: 0.5.
As to A22G U108C, the self-cleavage turned out to be 0.03.
Take A23G G84A: the self-cleavage was 1.58.
Turning to A23G A51G, the self-cleavage was 1.33.
Regarding A24C A30G, the self-cleavage is 1.02.
Under A23G A95G stands 1.59; under A23G A52U, 1.69; under A23G A52G, 1.13.
Under A23U A51U stands 1.33; under A23U A51G, 1.24; under A24G A78U, 0.39.
Under A24G A78G stands 0.21.
As to A23U A91G, the self-cleavage came out at 0.79.
Next, A22U A55G: 0.73.
On to A24C A47U, for which the self-cleavage worked out at 0.89.
Regarding A23G U130C, the self-cleavage was determined as 0.57.
In the case of A22U A82U, the self-cleavage was determined as 0.32.
Next, A22U G65U: 0.33.
As for A24C U72A, the self-cleavage stood at 0.28.
Next, A23G A55C: 1.33; A23G A55U: 0.86; A22G C77U: 1.62.
Take A23G G28A: the self-cleavage is 0.93.
As for A24G A47U, the self-cleavage turned out to be 0.96.
Regarding A23U A86C, the self-cleavage came out at 0.82.
Next, A23G C121U: 2.12; A24G A117G: 1.45.
Under A23G A98G stands 0.23; under A23U U132C, 1.03.
With A23U A69G, the self-cleavage was 1.02.
With A24C A62G, the self-cleavage came out at 1.2.
Under A22G U87A stands 1.28; under A22G U87C, 1.28.
Turning to A24G C105U, the self-cleavage was found to be 0.26.
For A22U A110G, the self-cleavage was determined as 0.12.
Next, A22G U122G: 1.67; A22G U122C: 0.86; A22G C107U: 0.06.
Consider A23G A36U, for which the self-cleavage amounted to 1.74.
As for A23G U97G, the self-cleavage is 1.16.
Next, A22U A89U: 1.91; A23G C40U: 1.37; A22U A30C: 0.38.
Under A23G U72A stands 0.23.
Under A22U A140G stands 1.41; under A22G G74A, 0.24.
Take A23U A89G: the self-cleavage is 0.86.
Under A22U A118G stands 1.13.
Next, A22U A118U: 0.64; A23G A47G: 0.86.
Under A23G A47U stands 0.77; under A23G C105G, 0.07; under A24C U100C, 1.84.
As to A24C A118G, the self-cleavage came out at 0.96.
Next, A22U U122A: 1.33; A22U U122C: 1.37.
Next, A23U A110U: 0.93; A22U A94U: 1.75.
Under A23G A110C stands 0.09; under A24G A54U, 1.48; under A23U A36U, 1.53.
Regarding A23G A82C, the self-cleavage was 0.09.
For the variant A23G A82U, the self-cleavage is 0.2.
Next, A23C A95G: 1.67; A23U A95G: 1.75.
As to A23U A68G, the self-cleavage was 1.45.
In the case of A22G G83A, the self-cleavage amounted to 1.27.
Next, A22G G83U: 0.54; A23G C45U: 1.23; A23U U102C: 1.7.
For A23G C71U, the self-cleavage stood at 0.31.
For the variant A22G U103C, the self-cleavage amounted to 0.98.
Under A22G C105U stands 0.25.
Under A23G U49A stands 1.12; under A23G U49G, 1.02.
Under A23G A116U stands 0.3; under A23C U38C, 1.73.
On to A23U A33G, for which the self-cleavage was found to be 1.06.
Next, A22G U26C: 1.02.
Next, A22G U26A: 0.67; A22G A134G: 1.02.
For the variant A23U A126G, the self-cleavage is 0.96.
Under A23G C42G stands 1.11.
Next, A23U U122C: 1.
Under A23G A90U stands 1.85; under A24G G28A, 1.11.
With A23G U103C, the self-cleavage stood at 0.77.
A23G A63G: the self-cleavage is 1.01.
Under A24G C77U stands 1.55; under A24G A60G, 0.89.
Under A23C A117G stands 2.19; under A24G A51G, 1.27; under A24G A51U, 1.19.
As to A24G A59G, the self-cleavage came to 1.23.
Under A24G A59C stands 0; under A24C U38C, 1.26.
Next, A24C: 1.29; A24G: 1.09; A24G A52U: 0.64.
Regarding A24C A126G, the self-cleavage is 0.
For the variant A22U U37C, the self-cleavage was determined as 0.85.
Under A23G G53C stands 1.82.
Under A24C G80A stands 0.19; under A24G A33C, 1.62; under A23G A59U, 1.
A22G G28C: the self-cleavage came out at 1.42.
Next, A22G G28A: 1.28; A24G C112U: 0.02.
For A23G A33U, the self-cleavage is 1.9.
Next, A23G A33C: 1.52; A23G A33G: 0.84; A23U U38C: 0.48.
Next, A22G G106A: 0.03; A23G U26A: 1.22.
As to A23G U26C, the self-cleavage was 1.42.
A23U A59G: the self-cleavage is 2.4.
Under A24C A66G stands 1.16; under A23G A69U, 1.12; under A23G A24U, 1.72.
With A24G A95U, the self-cleavage came to 1.16.
Turning to A23U A78U, the self-cleavage worked out at 0.2.
Next, A24C U127C: 1.03.
Next, A22U A59U: 1.71; A22U A59G: 1.48; A24C A89G: 1.68.
Turning to A22G A118G, the self-cleavage stood at 0.99.
For A22G G29C, the self-cleavage came to 2.4.
Regarding A22G U133C, the self-cleavage was determined as 0.65.
With A23C U43C, the self-cleavage is 1.86.
Next, A23G A117C: 0.36.
Regarding A23G A117U, the self-cleavage was determined as 0.55.
Regarding A22G U57A, the self-cleavage is 1.15.
For A24G A118G, the self-cleavage came to 1.01.
Next, A24G A118U: 0.51; A24C A78G: 0.32; A24C A78C: 0.36.
As to A22U A52G, the self-cleavage was determined as 1.63.
Next, A24C U57A: 1.21; A24G A36G: 1.15; A22G A125U: 1.32.
Next, A24C A82G: 0.62; A24C A60G: 1.17.
In the case of A23G A62C, the self-cleavage was found to be 0.98.
Under A22U U26C stands 0.97; under A22G U43C, 0.78; under A22G U43A, 1.31.
As to A22U G44A, the self-cleavage was 1.87.
With A22G U39G, the self-cleavage amounted to 1.41.
Under A24G C88U stands 0.95.
For A22U A125G, the self-cleavage was determined as 0.52.
Next, A23U A94G: 1.18; A23U A94U: 0.3.
Under A24G G41U stands 1.18.
Under A24G G41A stands 1.45; under A24G A125G, 0.43.
